Assay results from PMC2789667 (Biochemistry, 2009).

Biological target: the molecule itself
Assay: SEC

B1: Recombinant rat NADPH-cytochrome P450 reductase with a single amino acid mutation of K56Q (enzyme, UniProt P00388 1-678, looked up)
chain: MGDSHEDTSATMPEAVAEEVSLFSTTDMVLFSLIVGVLTYWFIFRKKKEEIPEFSQIQTTAPPVKESSFVEKMKKTGRNIIVFYGSQTGTAEEFANRLSKDAHRYGMRGMSADPEEYDLADLSSLPEIDKSLVVFCMATYGEGDPTDNAQDFYDWLQETDVDLTGVKFAVFGLGNKTYEHFNAMGKYVDQRLEQLGAQRIFELGLGDDDGNLEEDFITWREQFWPAVCEFFGVEATGEESSIRQYELVVHEDMDVAKVYTGEMGRLKSYENQKPPFDAKNPFLAAVTANRKLNQGTERHLMHLELDISDSKIRYESGDHVAVYPANDSALVNQIGEILGADLDVIMSLNNLDEESNKKHPFPCPTTYRTALTYYLDITNPPRTNVLYELAQYASEPSEQEHLHKMASSSGEGKELYLSWVVEARRHILAILQDYPSLRPPIDHLCELLPRLQARYYSIASSSKVHPNSVHICAVAVEYEAKSGRVNKGVATSWLRAKEPAGENGGRALVPMFVRKSQFRLPFKSTTPVIMVGPGTGIAPFMGFIQERAWLREQGKEVGETLLYYGCRRSDEDYLYREELARFHKDGALTQLNVAFSREQAHKVYVQHLLKRDREHLWKLIHEGGAHIYVCGDARNMAKDVQNTFYDIVAEFGPMEHTQAVDYVKKLMTKGRYSLDVWS
B1: binds.
